Test results reported in article PMC3900457.

B1: wild-type ecdysone receptor DNA binding domain (EcRDBDWT) [Drosophila melanogaster] / ultraspiracle DNA binding domain (UspDBD) [Drosophila melanogaster] (parent)
chain 1: APRVQEELCLVCGDRASGYHYNALTCEGCKGFFRRSVTKSAVYCCKFGRACEMDMYMRRKCQECRLKKCLAVGMRPECVVPENQCAMKRREKKAQKEKDKMTTSPSSQHG
chain 2: NHPLSGSKHLCSICGDRASGKHYGVYSCEGCKGFFKRTVRKDLTYACRENRNCIIDKRQRNRCQYCRYQKCLTCGMKREAVQEERQ
B2: wild-type ecdysone receptor DNA binding domain (EcRDBDWT) [Drosophila melanogaster] / itself (parent)
chain: B1 chain 1

Variants of: B1
Assay: EMSA
Settings: with ultraspiracle DNA binding domain (UspDBD) [Drosophila melanogaster]; equimolar mixture of EcRDBD and UspDBD, total protein 200 nM; heterodimer complex (CIIUE) on hsp27pal DNA probe; parent: 62; read off a plot

Row | Variant | response (% hsp27pal bound)
1 | chain 1 L24R | 58
2 | chain 1 C69A | 55

Next, values leading:

Row | response (% hsp27pal bound) | Variant
3 | 64 | chain 1 L66F
4 | 61 | chain 1 M57W
5 | 42 | chain 1 V72E
6 | 57 | chain 1 V72M

Same assay, conditions: with ultraspiracle DNA binding domain (UspDBD) [Drosophila melanogaster]; equimolar mixture of EcRDBD and UspDBD, total protein 50 nM; heterodimer complex (CIIUE) on hsp27pal DNA probe; parent: 42; read off a plot

Row | response (% hsp27pal bound) | Variant
7 | 45 | chain 1 L24R M57W
8 | 39 | chain 1 L24R L66F
9 | 57 | chain 1 L24R M57W L66F
10 | 51 | chain 1 M57W L66F

Variants of: B2
Assay: EMSA
Settings: with itself; total protein 50 nM; homodimer complex (CIIE) on hsp27pal DNA probe; parent: 19; read off a plot

Row | response (% hsp27pal bound) | Variant
11 | 20 | chain 1 L24R L66F
12 | 31 | chain 1 M57W L66F
13 | 36 | chain 1 L24R M57W L66F
14 | 22 | chain 1 L24R M57W

Same assay, conditions: with itself; total protein 200 nM; homodimer complex (CIIE) on hsp27pal DNA probe; parent: 44; read off a plot

Row | Variant | response (% hsp27pal bound)
15 | chain 1 C69A | 39
16 | chain 1 L24R | 45

Next, values leading:

Row | response (% hsp27pal bound) | Variant
17 | 23 | chain 1 V72M
18 | 7.4 | chain 1 V72E
19 | 47 | chain 1 L66F
20 | 42 | chain 1 M57W
